According to the RNAGym collection of RNA variant scans (doi:10.7554/elife.80360):

B1: Hairpin Ribozyme (parent)
chain: GUCCUCUUUCACGUGCGCGUGAAAGAGAGAAGUGAACCAGAGAAACACACGUUGUGGUAUAUUACCUGGUA

Variants of: B1
Experiment: self-cleavage, relative activity (ratio to wild type); higher = more cleavage; co-transcriptional

Variant | self-cleavage
G27A A31C | 0.193
A26C U60G | 0.365
A26C U60C | 0.602
G27A U60A | 0.334
G27A U60G | 0.213
G27A | 0.454
G27C | 0.172
G27A A61G | 0.114
G25U A59C | 0.195
A26U A71C | 1.19
G25A G29A | 0.204
G27C G54C | 0.151
G27C G54U | 0.192
G25A U70G | 0.509
G27C C65A | 0.146
A26U G34A | 0.954
A26U G34C | 1.51
A26C U62A | 0.269
A26C U62C | 0.213
G25U A26U | 0.542
G25A U52G | 0.61
G25A U52A | 0.643
G27C C37A | 0.121
G27A A28G | 0.36

Variant | self-cleavage
G27A A28C | 0.295
G25A U58A | 0.376
G25A U58G | 0.496
A26G A44C | 0.0629
A26G A44G | 0.241
G25C G40U | 0.12
G25C G40C | 0.102
A26G G54U | 0.349
A26U A59C | 0.137
A26C C65G | 0.226
G27A G29A | 0.189
G25C A43U | 0.243
G25C A43C | 0.0652
A26G A41C | 1.25
G27C U67G | 0.0952
G27C C48U | 0.231
A26U G40U | 0.131
A26U G40A | 0.175
G27C A43C | 0.107
G27C A43G | 0.107
A26G A49G | 0.665
G25A G40A | 0.191
G25A G40C | 0.145
G25A U67G | 0.176

Variant | self-cleavage
G25A U67C | 0.166
A26C C37U | 0.446
G25U A45G | 0.118
G25U A45U | 0.162
A26G G69A | 0.451
A26U A35G | 0.786
A26U U53A | 0.474
A26C A71C | 1.08
A26C G57A | 0.141
A26G U70C | 0.89
G25U A28U | 0.509
G27C A31U | 0.223
G27A U67G | 0.175
G27A U67A | 0.0995
A26C A36U | 0.556
A26C A36G | 0.846
G27A G57U | 0.157
A26U A30G | 0.142
G25A U33G | 0.136
A26C C50A | 0.117
A26G U63A | 0.101
A26G U63C | 0.225
G27A A39U | 0.166
G27A A39G | 0.121

Variant | self-cleavage
G25C G57A | 0.176
A26U G68C | 0.103
A26U G68U | 0.207
A26U G69U | 0.225
G25U G54U | 0.399
G27C A35G | 0.181
G27C A35C | 0.143
A26C A59G | 0.0796
A26C A39G | 0.222
A26U C66G | 0.16
G27C U60C | 0.333
G27C U33C | 0.117
G27C U33G | 0.0854
G27C U33A | 0.0754
A26G A64G | 0.55
A26G A64U | 0.271
A26G A64C | 0.303
A26U U58A | 0.391
G25U A71U | 0.575
G25U A71C | 1.08
G27C A39C | 0.0945
G27C A30C | 0.0463
A26C C66A | 0.34
A26C C66G | 0.12

Variant | self-cleavage
G27A A45C | 0.186
G27A A45G | 0.196
G25C A47G | 0.071
G25U A36U | 0.4
G25U A36C | 0.463
G27C G29U | 0.179
G27C G29A | 0.138
G27A G68A | 0.241
G25C A71G | 0.687
A26G G29C | 0.139
A26G G29A | 0.159
A26U A43G | 0.121
A26U A43U | 0.139
G25C C66U | 0.182
G25C C66A | 0.133
G25C G69C | 0.187
G25C G69U | 0.199
G27A U58G | 0.151
A26G G40U | 0.128
A26C A28C | 0.329
G25C U70G | 0.402
A26U C46A | 0.146
G25U U63C | 0.184
G25U U63G | 0.174

Variant | self-cleavage
A26U A61U | 0.15
A26U A64G | 0.399
G27A C50G | 0.131
A26G U52A | 0.896
G27C G51A | 0.266
G25U C50G | 0.25
G25U C50U | 0.287
G25U G29U | 0.126
A26U U52A | 0.788
A26C G40A | 0.295
A26C U52A | 0.599
A26C U52G | 0.409
G27A C46U | 0.127
G25U A39U | 0.242
A26U G42A | 0.153
A26G U33C | 0.0771
A26G U33G | 0.0904
G25C C46G | 0.115
G25U A47G | 0.0793
G25U A47C | 0.241
G27C A49U | 0.129
A26C A64C | 0.216
A26U C48A | 0.153
G27C G56U | 0.131

Variant | self-cleavage
G27C G56A | 0.0609
G27C A41G | 0.234
A26U U70C | 0.721
G25A G57C | 0.0684
G25A G56U | 0.117
A26U C38A | 0.188
G25C U62A | 0.188
G25C C50G | 0.178
G25C G51C | 0.435
A26G C48A | 0.13
A26U U63C | 0.199
G27A A35C | 0.485
A26G C66U | 0.429
A26G C66A | 0.171
A26C G27A | 0.139
G25U A61U | 0.185
A26C G42U | 0.307
A26C G42A | 0.12
G27A A36G | 0.42
G27A A36C | 0.253
A26U A41U | 0.989
A26U A41G | 0.841
G25U A35U | 0.474
G25A U55C | 0.208

Variant | self-cleavage
A26U G56C | 0.135
G25C G42A | 0.174
G25C A35C | 0.474
A26G A28G | 1.12
A26C U70C | 0.728
G25C U52C | 0.657
G27C G40A | 0.0679
G27C G40C | 0.107
G27A C48G | 0.151
A26C C46U | 0.172
G25C U58G | 0.403
A26C G68U | 0.186
G27A G34A | 0.551
G25C A28G | 0.883
A26G A31C | 0.114
A26G A31U | 0.183
G25U U60A | 0.391
A26C A41U | 0.74
A26C A41G | 0.633
A26C U53A | 0.521
G27A C38A | 0.127
G25C A64G | 0.4
G25C A64C | 0.0865
G27A C66G | 0.133

Variant | self-cleavage
G25U U52C | 0.626
G25U U52G | 0.696
A26G A61G | 0.161
A26C U33G | 0.0995
G25U C38U | 0.332
A26C U67A | 0.0843
A26C U67C | 0.21
A26G A59C | 0.162
A26G A59G | 0.158
A26C A43G | 0.144
A26C A43U | 0.224
A26C A49U | 0.239
A26C A49G | 0.461
G25A G51A | 0.586
G25C C38U | 0.263
G27C C50U | 0.0886
G27C C50G | 0.114
G27C U53C | 0.318
G27A G32U | 0.0607
G27A G56C | 0.101
G27A G56U | 0.156
A26G U67A | 0.148
A26G U67C | 0.263
G25A U63A | 0.108

Variant | self-cleavage
G25A U63C | 0.17
G27A G54A | 0.221
G27A G54U | 0.213
A26U A31U | 0.0397
A26U A31G | 0.389
A26U G54U | 0.34
G27C A36U | 0.128
G27C A36G | 0.14
G27C A36C | 0.113
G27C U52A | 0.167
G27C U52C | 0.22
G27C U52G | 0.163
A26C A35C | 0.726
A26G G27A | 0.275
A26G G27U | 0.121
G27C C38U | 0.131
G27C C38G | 0.0571
G25U G40C | 0.131
G25U G40A | 0.256
G27C U55G | 0.113
G27C U55A | 0.156
G25C G68C | 0.187
G25C G68U | 0.206
G25U A31G | 0.385

Variant | self-cleavage
G27C A64G | 0.186
A26G C50A | 0.262
G27C G69C | 0.1
G25C G54A | 0.239
G25C G54U | 0.245
G27A G42U | 0.147
A26C A45C | 0.155
G25C G34C | 0.967
A26U G29U | 0.151
A26U G29C | 0.135
A26G U55A | 0.283
G27C A47C | 0.0432
A26G C38G | 0.138
A26G C38U | 0.297
A26G C46U | 0.267
A26G C46A | 0.0799
A26C A61G | 0.0543
A26C A61U | 0.184
G27A A64G | 0.303
A26C G69A | 0.327
G27C G34A | 0.161
G27C G34U | 0.779
G27C G34C | 0.971
G25U U67G | 0.18

Variant | self-cleavage
G25U U67C | 0.178
G27A U55A | 0.169
A26G G68C | 0.312
G25C A36U | 0.397
G25C A59G | 0.123
G25U G51C | 0.589
G25A G68C | 0.22
A26C U55G | 0.297
G25A G32U | 0.144
G25C C65U | 0.324
G27C C66U | 0.162
G27C C66A | 0.157
G27A A47G | 0.129
G25U C48G | 0.129
G27A U62G | 0.221
G27A U62C | 0.13
G25A U60G | 0.291
A26U A47G | 0.142
G25C A44G | 0.085
G25C A44U | 0.112
A26U G57U | 0.143
G27C G68A | 0.105
G27C G68C | 0.0698
A26U C37U | 0.466

Variant | self-cleavage
G27A G40A | 0.143
G25U U53A | 0.647
G25C G29A | 0.13
G25C U53G | 0.39
A26C U58C | 0.771
A26C U58G | 0.496
A26C U58A | 0.623
G27A C65G | 0.161
G27A G69U | 0.182
G25C U55C | 0.108
G25C U55G | 0.13
G25C U55A | 0.163
G25A G69A | 0.238
G25A G69U | 0.0604
G27A A71C | 0.95
A26C U63C | 0.177
A26G A45G | 0.132
G25A U53G | 0.524
G27C A71U | 0.178
G27C A71G | 0.143
A26U A39U | 0.266
A26U U67A | 0.196
A26G A30U | 0.108
A26U G27A | 0.228

Variant | self-cleavage
G25C C37A | 0.281
G27A U33C | 0.0597
G27A U33G | 0.0835
G25A G42U | 0.186
G25U U33A | 0.0923
G25U U33C | 0.145
A26G G32A | 0.103
A26G G34C | 1.01
G25C A61C | 0.0596
A26C G34U | 1.03
G25C G27U | 0.164
A26G A39C | 0.571
G25U G34U | 1.28
G25U G34C | 1.13
G27A A43G | 0.0988
G25U G57C | 0.163
G25C U63G | 0.189
G25C U63A | 0.0846
G25C U63C | 0.204
G27C G57A | 0.15
G27C G57U | 0.174
G27C G57C | 0.0926
